In US20200095336A1:

How the values were obtained:
[1] = biological target: midgut brush-border membrane vesicle protein BBMV of Plutella xylostella; assay: BLI (Octet), BBMV coated on APS biosensor, analyte at 4, 2, 1 and 0.5 µM
[2] = biological target: midgut brush-border membrane vesicle protein BBMV of Plutella xylostella; assay: competitive ELISA on coated BBMV; Cry1Ab varied against CCL-CCL_scFv (competitor, detected by its His tag)
[3] = biological target: midgut brush-border membrane vesicle protein BBMV of Plutella xylostella; assay: competitive ELISA on coated BBMV; Cry1Ac varied against CCL-CCL_scFv (competitor, detected by its His tag)
[4] = biological target: midgut brush-border membrane vesicle protein BBMV of Plutella xylostella; assay: ELISA on coated BBMV, anti-His-tag HRP

Question: What does the source list for Bt toxin Cry1Ab (ligand)?
Answer: Kd [1]: 127 nM; IC50 [2]: 3.02 µg/mL

Question: Bt toxin Cry1Ac (ligand) was tested. Which IC50 [3] did it give?
Answer: The IC50 was 1.7 µg/mL.

Question: What about the inhibition rate [3] of the same molecule?
Answer: Its inhibition rate is 90%.

B1: human-derived molecularly modified insecticidal protein CCL-CCL_scFv (scFv)
scFv: MATDIQMTQSPSSLSASVGDRVTITCRASQSISSYLNWYQQKPGKAPKLLIYAASRLQSGVPSRFSGSGSGTDFTLTISSLQPEDFATYYCQQTSHPPLTFGQGTKVEIKRSSGGGGSGGGGSGGGGSTDIQMTQSPSSLSASVGDRVTITCRASQSISSYLNWYQQKPGKAPKLLIYAASRLQSGVPSRFSGSGSGTDFTLTISSLQPEDFATYYCQQTSHPPLTFGQGTKVEIKR
Question: B1 was tested. Which Kd [1] did it give?
Answer: Its Kd is 41.6 nM.

Question: And the OD450 [4]?
Answer: Its OD450 is over 3 OD450.
